Data as given in publication PMC9691700, “CD147 contributes to SARS-CoV-2-induced pulmonary fibrosis” (Signal Transduction and Targeted Therapy, 2022).

Target: T1, His-Spike RBD (40592-V08H) (SARS-CoV-2, UniProt P0DTC2 319-541)
T1 construct: source: bought: Sino Biological
Test: SPR; Biacore T200, CM5 sensor chip; RBD fixed to the chip by amino coupling; CD147 flowed over; binding time 90 s, dissociation time 120 s
Details: both partners purified

B1: Human His-CD147 (receptor)
chain: GTVFTTVEDLGSKILLTCSLNDSATEVTGHRWLKGGVVLKEDALPGQKTEFKVDSDDQWGEYSCVFLPEPMGTANIQLHGPPRVKAVKSSEHINEGETAMLVCKSESVPPVTDWAWYKITDSEDKALMNGSESRFFVSSSQGRSELHIENLNMEADPGQYRCNGTSSKGSDQAIITLRVRSHLAAL
notes: CD147 (basigin), human; also called human CD147; hCD147
B1 was tested, and the Kd was 4.47 µM.
